According to the supplement of paper PMC7877785:
± gives the uncertainty stated by the source.

Assay: self-splicing fitness, log relative to wild type (ln ratio); higher = more splicing; Tetrahymena group I intron in knt gene, E. coli kanamycin selection, DiMSum; sequences stand for … in CUCUCU…GGAGGGAAAAGUUAUCAGGCAUGCACCUGGUAGCUAGUCUUUAAACCAAUAGAUUGCAUCGGUUUAAAAGGCAAGACCGUCAAAUUGCGGGAAAGGGGUCAACAGCCGUUCAGUACCAAGUCUCAGGGGAAACUUUGAGAUGGCCUUGCAAAGGGUAUGGUAAUAAGCUGACGGACAUGGUCCUAACCACGCAGCCAAGUCCUAAGUCAACAGAUCUUCUGUUGAUAUGGAUGCAGUUCACAGACUAAAUGUCGGUCGGGGAAGAUGUAUUCUUCUCAUAAGAUAUAGUCGGACCUCUCCUUAAUGGGAGCUAGCGGAUGAAGUGAUGCAACACUGGAGCCGCUGGGAACUAAUUUGUAUGCGAAAGUAUAUUGAUUAGUUUUGGAGUACUCGUGGUCG
Procedure, shortened: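 Colonies from six replicate transformations of E. coli BL21(DE3) were pooled and amplicon-sequenced on an Illumina HiSeq 2500. The library placed an intron with all eight P1ex-region nucleotides randomised inside the knt kanamycin-resistance gene on pET-22b(+), and cells grew overnight at 37°C or 30°C on LB agar with or without 25 μg/mL kanamycin (plus 100 μg/mL carbenicillin, 50 μM IPTG, 0.2% rhamnose). Fitness is the DiMSum error-weighted combination of wild-type-normalised replicate fold changes, kanamycin versus none.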

| Sequence | self-splicing fitness (ln) (30 °C) | self-splicing fitness (ln) (37 °C) |
| --- | --- | --- |
| AGUCAGCAAUAUUACGGGGG | -3.61 ± 0.21 | -2.6 ± 0.22 |
| AACCAGCAAUAUUACGAUCU | -0.425 ± 0.052 | 0.391 ± 0.074 |
| GAGGAGCAAUAUUACGACAU | -2.069 ± 0.02 | -1.21 ± 0.036 |
| AUAAAGCAAUAUUACGUUUC | -3.83 ± 0.23 | -2.64 ± 0.33 |
| ACUUAGCAAUAUUACGUAUC | -3.56 ± 0.22 | -2.37 ± 0.24 |
| UAGCAGCAAUAUUACGGUCC | -3.66 ± 0.26 | -2.03 ± 0.24 |
| CAUCAGCAAUAUUACGAGGA | -3.13 ± 0.23 | -2.6 ± 0.19 |
| CCGGAGCAAUAUUACGCGCU | -1.24 ± 0.17 |  |
| AUUAAGCAAUAUUACGUCGA | -1 ± 0.1 | -0.855 ± 0.13 |
| CUGGAGCAAUAUUACGGAGC | -3.08 ± 0.34 | -2.38 ± 0.38 |
| GCGCAGCAAUAUUACGGAUC | -0.0635 ± 0.068 | 0.419 ± 0.083 |
| GGCUAGCAAUAUUACGGGCA | 0.122 ± 0.082 | 0.0658 ± 0.092 |
| GCAUAGCAAUAUUACGUCCA | -1.49 ± 0.21 | -0.447 ± 0.18 |
| GUGCAGCAAUAUUACGAACA | -1.32 ± 0.22 | -1.25 ± 0.2 |
| GCUGAGCAAUAUUACGGGAC | -1.25 ± 0.13 | -2.16 ± 0.22 |
| CACGAGCAAUAUUACGUAGC | -2.94 ± 0.24 | -3.31 ± 0.3 |
| GUUAAGCAAUAUUACGUUCU | -1.03 ± 0.085 | -0.445 ± 0.091 |
| GCACAGCAAUAUUACGUUAU | -1.14 ± 0.044 | -0.44 ± 0.054 |
| ACUGAGCAAUAUUACGGGCA | -2.07 ± 0.14 | -1.08 ± 0.14 |
| AUUUAGCAAUAUUACGUUUG | -3.78 ± 0.21 | -1.25 ± 0.16 |
| CGUGAGCAAUAUUACGACAA |  | -3.33 ± 0.25 |
| ACCUAGCAAUAUUACGGAUA | -1.65 ± 0.11 | -1.59 ± 0.099 |
| GAGUAGCAAUAUUACGGUGU | -2.71 ± 0.11 | -2.35 ± 0.18 |
| CCGCAGCAAUAUUACGUGGG | -3.41 ± 0.12 | -3.02 ± 0.17 |
| UGCAAGCAAUAUUACGAAGA | -1.99 ± 0.27 | -2.3 ± 0.31 |
| UCGGAGCAAUAUUACGAUCA |  | -1.23 ± 0.48 |

| Sequence | self-splicing fitness (ln) (30 °C) | self-splicing fitness (ln) (37 °C) |
| --- | --- | --- |
| GUCAAGCAAUAUUACGGACA | -3.06 ± 0.39 | -2.09 ± 0.19 |
| CAAGAGCAAUAUUACGGUAC | -3.2 ± 0.26 | -2.37 ± 0.21 |
| ACUCAGCAAUAUUACGUGAU | -1 ± 0.064 | -0.627 ± 0.078 |
| CUGGAGCAAUAUUACGUAUA | -3.12 ± 0.36 | -2.48 ± 0.3 |
| AACCAGCAAUAUUACGACCA | -0.702 ± 0.082 | 0.122 ± 0.11 |
| ACACAGCAAUAUUACGGUGU | -5.22 ± 0.26 | -2.92 ± 0.21 |
| CUUGAGCAAUAUUACGUAAU | -2.79 ± 0.18 | -2.81 ± 0.24 |
| GCCGAGCAAUAUUACGCAAU | -2.79 ± 0.2 | -1.35 ± 0.15 |
| CGACAGCAAUAUUACGACGG | 0.243 ± 0.074 | 0.0681 ± 0.086 |
| ACACAGCAAUAUUACGGUUA | -1.16 ± 0.059 | -0.485 ± 0.061 |
| UUAGAGCAAUAUUACGCAGC | -3.08 ± 0.35 |  |
| CAAUAGCAAUAUUACGACUA | -1.96 ± 0.36 | -1.31 ± 0.27 |
| ACUAAGCAAUAUUACGAGCC | -3.72 ± 0.4 | -1.62 ± 0.33 |
| CUCUAGCAAUAUUACGAUUG | -1.48 ± 0.091 | -1.24 ± 0.12 |
| UGAGAGCAAUAUUACGGAGG | -2.31 ± 0.28 | -1.91 ± 0.3 |
| CGCUAGCAAUAUUACGGAGG | -1.78 ± 0.099 | -0.655 ± 0.13 |
| GUAGAGCAAUAUUACGUGUG | -0.928 ± 0.073 | -1.6 ± 0.12 |
| CAAAAGCAAUAUUACGGCCA | -1.68 ± 0.21 | -0.283 ± 0.16 |
| AUACAGCAAUAUUACGUUAG | -3.13 ± 0.15 | -2.12 ± 0.17 |
| AGCAAGCAAUAUUACGAUCA | -0.258 ± 0.084 | -0.0192 ± 0.099 |
| UAAUAGCAAUAUUACGUCGG | -2.21 ± 0.11 | -1.49 ± 0.14 |
| GAACAGCAAUAUUACGGCAU | -0.904 ± 0.085 | -0.254 ± 0.096 |
| CUAUAGCAAUAUUACGACUU | -2.98 ± 0.3 | -1.54 ± 0.34 |
| AGACAGCAAUAUUACGAAUG | -2.45 ± 0.11 | -1.86 ± 0.12 |
| GUCCAGCAAUAUUACGGCUC | -0.432 ± 0.077 | 0.909 ± 0.12 |
| ACGGAGCAAUAUUACGCCCG |  | 0.0539 ± 0.32 |

| Sequence | self-splicing fitness (ln) (30 °C) | self-splicing fitness (ln) (37 °C) |
| --- | --- | --- |
| AUUUAGCAAUAUUACGGCUC | -0.153 ± 0.097 | 0.0525 ± 0.11 |
| CAAGAGCAAUAUUACGAUCA | -1.72 ± 0.16 | -2.02 ± 0.24 |
| AUCGAGCAAUAUUACGGUCA | -2.98 ± 0.18 | -2.07 ± 0.18 |
| ACCGAGCAAUAUUACGUUUA | -3.4 ± 0.27 | -2.39 ± 0.18 |
| CAACAGCAAUAUUACGGUAA | -1.71 ± 0.089 | -1.61 ± 0.094 |
| UACGAGCAAUAUUACGAGUU | -2.32 ± 0.2 | -0.892 ± 0.23 |
| UUCGAGCAAUAUUACGCGAU | -2.39 ± 0.21 | -2.11 ± 0.27 |
| CGAAAGCAAUAUUACGCGUC |  | -0.242 ± 0.19 |
| GAUGAGCAAUAUUACGAAAC | -3.2 ± 0.26 | -2.43 ± 0.24 |
| CAGAAGCAAUAUUACGCUUU | -2.99 ± 0.17 | -3.59 ± 0.26 |
| GGGGAGCAAUAUUACGAUCA | -1.45 ± 0.18 | -0.807 ± 0.19 |
| GAUGAGCAAUAUUACGUGUG | -2.57 ± 0.14 | -1.45 ± 0.12 |
| CCAAAGCAAUAUUACGUAAG | -0.334 ± 0.049 | 0.53 ± 0.071 |
| GCAGAGCAAUAUUACGAAUC | -1.94 ± 0.33 | -1.15 ± 0.33 |
| GCCUAGCAAUAUUACGAUAU | -2.23 ± 0.11 | -0.907 ± 0.097 |
| AUUCAGCAAUAUUACGUCGA | -0.991 ± 0.085 | -0.503 ± 0.097 |
| GUCAAGCAAUAUUACGAGAC | -3.46 ± 0.19 | -3.84 ± 0.26 |
| AACGAGCAAUAUUACGACGG | -4.27 ± 0.37 | -2.04 ± 0.23 |
| UCGCAGCAAUAUUACGGAUC | -3.82 ± 0.35 |  |
| GGCGAGCAAUAUUACGUAUU | -2.29 ± 0.14 | -0.757 ± 0.12 |
| GCCUAGCAAUAUUACGUGGA | -0.477 ± 0.068 | 0.358 ± 0.076 |
| UGGGAGCAAUAUUACGUAAG | -0.459 ± 0.15 | -1.12 ± 0.2 |
| AAUAAGCAAUAUUACGCGAA | -1.74 ± 0.12 | -1.01 ± 0.12 |
| GUUUAGCAAUAUUACGUUCG | -1.61 ± 0.13 | -0.589 ± 0.14 |
| CUAAAGCAAUAUUACGAGGG | -2.22 ± 0.094 | -2.22 ± 0.16 |
| GGGAAGCAAUAUUACGGGCC | -2.03 ± 0.14 | -0.949 ± 0.13 |
